Measured values taken from paper PMC2739136.
Substitutions are numbered along the chain they refer to.

What was measured:
Experiment in all cases: pull-down
[1] = target: T1, MBP-TraR A157V, P33905
T1 chain: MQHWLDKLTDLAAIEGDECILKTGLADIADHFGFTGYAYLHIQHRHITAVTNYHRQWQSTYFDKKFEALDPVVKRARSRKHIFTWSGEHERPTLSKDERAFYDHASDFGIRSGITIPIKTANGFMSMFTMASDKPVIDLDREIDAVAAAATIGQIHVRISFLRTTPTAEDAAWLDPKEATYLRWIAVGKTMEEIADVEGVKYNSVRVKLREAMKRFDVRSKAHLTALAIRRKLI

[2] = target: T2, MBP-TraR A222S, P33905
T2 chain: T1 chain with V157A, A222S

[3] = target: T3, MBP-TraR G123R, P33905
T3 chain: T1 chain with G123R, V157A

[4] = target: T4, MBP-TraR A149E, P33905
T4 chain: T1 chain with A149E, V157A

[5] = target: T5, MBP-TraR T225S, P33905
T5 chain: T1 chain with V157A, T225S

[6] = target: T6, MBP-TraR A222D, P33905
T6 chain: T1 chain with V157A, A222D

[7] = target: T7, MBP-TraR A157E, P33905
T7 chain: T1 chain with V157E

[8] = target: T8, MBP-TraR Q154A, P33905
T8 chain: T1 chain with Q154A, V157A

B1: native TraR (wild type) (protein)
chain: T1 chain with V157A
[1]
  heterodimer formation (% of wild type) (% of wild type): 50
[2]
  heterodimer formation (% of wild type) (% of wild type): 53
[3]
  heterodimer formation (% of wild type) (% of wild type): 49
[4]
  heterodimer formation (% of wild type) (% of wild type): 12
[5]
  heterodimer formation (% of wild type) (% of wild type): 43
[6]
  heterodimer formation (% of wild type) (% of wild type): 29
[7]
  heterodimer formation (% of wild type) (% of wild type): 48
[8]
  heterodimer formation (% of wild type) (% of wild type): 27
